What was measured:
[1] = tested on: vascular smooth muscle cells; test: Smooth muscle cell proliferation assay (tritiated thymidine incorporation); type: cell-based, mice; details: for S100B-stimulated SMC proliferation in presence of inhibitor: preincubation with agent (Y27632 10 μM, fasudil 10 μM, anti-Tgf-β2 IgG 10 μg/ml vs IgG control), FIGS. 8C, 8E; for SMC proliferation on incubation with stimulant: FIG. 8A
Procedure: (§1) Wild-type and RAGE null mice vascular smooth muscle cells were isolated and cultured from the aorta and employed through passage 5 to 7. Migration assays were performed using the QCM Colorimetric Cell Migration Assay (Chemicon). Cells (3×10^5/well) were seeded into the upper chambers fitted with a lower 8 μm porous polycarbonate membrane, and the insert was placed in the lower chamber of a 24-well dish containing Dulbeccos' modified Eagle medium and no stimulant, S100B (10 μg/ml; generously provided by Dr. Guenter Fritz), Tgf-β2 (10 ng/ml; R&D Systems), or PDGF (10 ng/ml; R&D Systems) and incubated at 37° C. for 5 hrs and relative migration was measured according to the manufacturer's instructions. In experiments using anti-Tgf-β2 IgG and nonimmune IgG (10 μg/ml, both from Santa Cruz Biotechnology, Santa Cruz, Calif.), Y27632 (10 μM, Sigma Aldrich) and fasudil hydrochloride (10 μM, Tocris Bioscience, Ellisville Mo.) cells were preincubated with these agents or vehicle alone for 2 hrs in the case of antibodies and 30 mins in the case of Y27632 or fasudil at 37° C. prior to the addition to the chemotaxis chambers. Proliferation of cultured SMCs was quantified by measurement of incorporation of tritiated thymidine. SMCs were seeded at a density of 2×10^4 cells/wells in 24-well tissue culture-treated plates and incubated in serum-free DMEM for 16 hrs. Following a 2 hr preincubation with the indicated concentration of anti-Tgf-β2, nonimmune IgG, Y27632 or fasudil, cells were exposed to serum-free DMEM containing the indicated concentration of S100B or PDGF (10 ng/ml) along with 3H-thymidine (1 μCi/well). After the incubation period, cells were harvested 48 hrs later, and cellular proliferation was determined based on the incorporation of tritiated thymidine. Cell counting was performed and confirmed that increased trititated thymidine incorporation reflected an increase in cell number.

[2] = tested on: vascular smooth muscle cells; test: Smooth muscle cell migration assay (QCM Colorimetric Cell Migration Assay); type: cell-based, mice; details: S100B 10 μg/ml; for S100B-stimulated SMC migration in presence of inhibitor: preincubation with agent (Y27632 10 μM, fasudil 10 μM, anti-Tgf-β2 IgG 10 μg/ml vs IgG control), FIGS. 8D, 8F; for SMC migration on incubation with stimulant: Tgf-β2 10 ng/ml, PDGF 10 ng/ml, FIG. 8B
Procedure: as §1

ROCK1 = ROCK1 activity assay (MYPT1 phosphorylation) on lysates of aorta or primary aortic SMCs; type: cell-based, murine; details: S100B 10 μg/ml, FIG. 5B
Procedure: Activation of ROCK1 was evaluated on lysates of aorta or primary murine aortic smooth muscle cells retrieved from wild-type or RAGE null mice. In the latter case, SMCs were stimulated with S100B (10 μg/ml for the indicated times and subjected to ROCK1 activity assays (7-8). Aortas or SMCs were lysed using a Triton X-100 lysis buffer containing 50 mM Tris (pH 7.5), 10 mM MgCl2, 0.5 M NaCl and 1% Triton X-100. The samples were incubated with Anti-ROCK1 antibody described above for 1 hr further with Protein G coated agarose beads for overnight at 4° C., and the beads were washed three times with lysis buffer. The amount of ROCK1 associated with the beads was incubated with 50 μl kinase buffer, 1 μl 10 mM ATP (Cell Signalling) and 0.5 μg […] myosin phosphatase-1 (MYPT1)/protein phosphatase-1 regulatory (inhibitor) subunit 12A (Ppplrl2a) substrate (Upstate Biotech) at […] for 30 min. Reaction was stopped by adding sample buffer, boiled for 5 min and the amount of phosphorylated MYPT1 was examined by immunoblotting using ThrB50-phosphorylation specific antibody 36-003 (Upstate Biotechnology). […] Equal quantities of ROCK1 were treated with equal quantities of MYPT1/Ppp1r12a. Relative absorbances were measured as described above, and these were used to determine the relative activation of ROCK1. […]

Molecule | S100B-stimulated SMC proliferation in presence of inhibitor ([1]; wild-type SMCs) | S100B-stimulated SMC migration in presence of inhibitor ([2]; wild-type SMCs) | SMC proliferation on incubation with stimulant ([1]; RAGE-deficient SMCs) | SMC proliferation on incubation with stimulant ([1]; wild-type SMCs) | SMC migration on incubation with stimulant ([2]; RAGE-deficient SMCs) | SMC migration on incubation with stimulant ([2]; wild-type SMCs) | ROCK1 activity upon incubation with RAGE ligand (ROCK1; SMCs from RAGE null mice) | ROCK1 activity upon incubation with RAGE ligand (ROCK1; primary aortic SMCs from wild-type mice)
C[C@@H](N)[C@H]1CC[C@H](C(=O)Nc2ccncc2)CC1 [Y27632, reference compound] | significantly reduced | significantly reduced |  |  |  |  |  | 
O=S(=O)(c1cccc2cnccc12)N1CCCNCC1 [fasudil, 5-(1,4-diazepane-1-sulfonyl)isoquinoline, reference compound] | significantly reduced | significantly reduced |  |  |  |  |  | 
PDGF [reference compound] |  |  | increased | increased | increased | increased |  | 
Tgf-β2: Tgf-β2 (R&D Systems), used as SMC stimulant (protein) ALDAAYCFRNVQDNCCLRPLYIDFKRDLGWKWIHEPKGYNANFCAGACPYLWSSDTQHTKVLSLYNTINPEASASPCCVSQDLEPLTILYYIGNTPKIEQLSNMIVKSCKCS |  |  | increased | increased | increased | increased |  | 
S100B: RAGE ligand S100B (protein, UniProt P04271 2-92, looked up) Protein S100-B: SELEKAMVALIDVFHQYSGREGDKHKLKKSELKELINNELSHFLEEIKEQEVVDKVMETLDNDGDGECDFQEFMAFVAMVTTACHEFFEHE |  |  | failed to stimulate | significantly increased | failed to stimulate | significantly increased | failed to increase ROCK1 activity | increased ROCK1 activity

— patent US20130064835A1, “RAGE REGULATES ROCK ACTIVITY IN CARDIOVASCULAR DISEASE” (priority 2009, published 2013)
